Columns and labels:
[1] = biological target: T1, Coagulation factor XIII (FXIII) (UniProt P00488;P05160 P00488:2-732,P05160:21-661); assay: dot blot, binds under native and denatured conditions; PBS/Tween 20, BSA block; conditions: chain copies: 2; label: FAM or biotin
T1 sequence 1: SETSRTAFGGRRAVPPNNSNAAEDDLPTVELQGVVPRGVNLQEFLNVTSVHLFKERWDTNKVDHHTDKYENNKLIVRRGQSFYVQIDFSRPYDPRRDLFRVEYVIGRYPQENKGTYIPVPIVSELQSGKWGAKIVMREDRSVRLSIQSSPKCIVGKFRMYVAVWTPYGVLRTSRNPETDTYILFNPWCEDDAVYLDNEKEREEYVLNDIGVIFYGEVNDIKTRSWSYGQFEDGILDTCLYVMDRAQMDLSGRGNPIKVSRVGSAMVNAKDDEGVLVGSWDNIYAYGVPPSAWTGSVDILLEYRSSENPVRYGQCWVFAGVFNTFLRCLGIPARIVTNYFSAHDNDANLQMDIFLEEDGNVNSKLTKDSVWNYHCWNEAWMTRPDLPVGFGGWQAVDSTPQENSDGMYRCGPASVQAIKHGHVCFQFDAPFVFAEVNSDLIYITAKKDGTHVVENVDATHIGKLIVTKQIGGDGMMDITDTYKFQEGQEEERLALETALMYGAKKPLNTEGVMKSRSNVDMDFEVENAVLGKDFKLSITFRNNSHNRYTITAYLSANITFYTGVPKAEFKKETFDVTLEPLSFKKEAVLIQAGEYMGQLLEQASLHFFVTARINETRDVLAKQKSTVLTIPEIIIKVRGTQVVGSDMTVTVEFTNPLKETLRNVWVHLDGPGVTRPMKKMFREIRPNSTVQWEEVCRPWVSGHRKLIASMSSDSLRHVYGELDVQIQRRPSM
T1 sequence 2: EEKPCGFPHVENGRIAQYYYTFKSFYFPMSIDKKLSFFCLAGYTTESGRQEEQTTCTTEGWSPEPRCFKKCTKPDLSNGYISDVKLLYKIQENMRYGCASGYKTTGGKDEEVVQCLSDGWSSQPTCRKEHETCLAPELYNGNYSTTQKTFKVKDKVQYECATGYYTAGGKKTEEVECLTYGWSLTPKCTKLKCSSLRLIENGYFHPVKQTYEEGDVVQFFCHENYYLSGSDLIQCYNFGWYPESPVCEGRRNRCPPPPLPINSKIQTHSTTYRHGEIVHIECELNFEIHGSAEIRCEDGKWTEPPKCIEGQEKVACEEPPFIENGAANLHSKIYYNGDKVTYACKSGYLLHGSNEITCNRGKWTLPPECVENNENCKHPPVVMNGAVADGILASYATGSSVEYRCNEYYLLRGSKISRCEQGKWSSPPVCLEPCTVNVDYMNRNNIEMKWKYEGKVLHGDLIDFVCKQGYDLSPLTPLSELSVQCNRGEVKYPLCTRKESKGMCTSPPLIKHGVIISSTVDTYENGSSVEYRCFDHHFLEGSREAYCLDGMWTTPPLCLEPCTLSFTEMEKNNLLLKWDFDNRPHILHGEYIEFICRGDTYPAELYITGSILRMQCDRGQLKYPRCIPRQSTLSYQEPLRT
Experimental: Purified FXIII was blotted on a nitrocellulose (NC) membrane, and air-dried for 1 hr. Then a mixture of BSA, PBS, and Polyoxyethylene(20)sorbitan monolaurate (TWEEN™ 20) was added to the NC membrane and incubated for 1 hr, and following biotin-conjugated aptamers were added to the NC membrane and incubated for another 1 hr. The NC membrane was washed thrice using a washing buffer of PBS and Tween 20, and horseradish peroxidase (HRP)-conjugated streptavidin was added to the NC membrane and incubated for 1 hr. For coloration, a substrate of HRP was added to the NC membrane after washing, and the images of the NC membrane were acquired by a X-ray film processor.

[2] = biological target: Bovine serum albumin (BSA) (Bos taurus, UniProt P02769 P02769:25-607); assay: dot blot, no binding under native or denatured condition; conditions: label: FAM or biotin
Bovine serum albumin (BSA), sequence (P02769 25-607, one chain of several): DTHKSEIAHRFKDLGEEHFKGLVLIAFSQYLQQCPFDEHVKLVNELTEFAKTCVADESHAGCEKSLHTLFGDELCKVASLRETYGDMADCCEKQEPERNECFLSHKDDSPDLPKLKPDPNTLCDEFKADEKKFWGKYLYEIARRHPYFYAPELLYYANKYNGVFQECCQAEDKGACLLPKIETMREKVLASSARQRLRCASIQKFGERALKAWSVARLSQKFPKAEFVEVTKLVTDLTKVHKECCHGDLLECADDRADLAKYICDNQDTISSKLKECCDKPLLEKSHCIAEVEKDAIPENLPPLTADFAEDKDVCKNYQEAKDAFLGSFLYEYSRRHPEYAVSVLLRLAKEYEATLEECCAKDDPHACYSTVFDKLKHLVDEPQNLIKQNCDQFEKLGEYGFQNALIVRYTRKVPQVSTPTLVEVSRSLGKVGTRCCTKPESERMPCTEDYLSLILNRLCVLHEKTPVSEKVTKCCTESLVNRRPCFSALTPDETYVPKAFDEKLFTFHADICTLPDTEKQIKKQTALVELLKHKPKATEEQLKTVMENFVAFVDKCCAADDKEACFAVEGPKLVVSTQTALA

CGCAGCATCATTCGGGTCGGGAAGGGGTGTACGGGGCTGCG (ssDNA) [FAT2]
binding result [1]: binds
binding result [2]: no binding
